Reference: patent US20200155602A1 (IMMATICS BIOTECHNOLOGIES, published 2020)

Target: T1, HLA-A*02:01 (human)
T1 construct: Peptide-receptive HLA-A*02:01 monomer obtained by UV cleavage of a UV-sensitive ligand; captured on streptavidin plates; also called peptide-receptive MHC molecules; MHC class I
Assay: UV-ligand exchange, anti-b2m ELISA; grade of peptide exchange yield (>10% = +; >20% = ++; >50 = +++; >75% = ++++)
Source text: Candidate peptides for T cell based therapies according to the present invention were further tested for their MHC binding capacity (affinity). The individual peptide-MHC complexes were produced by UV-ligand exchange, where a UV-sensitive peptide is cleaved upon UV-irradiation, and exchanged with the peptide of interest as analyzed. Only peptide candidates that can effectively bind and stabilize the peptide-receptive MHC molecules prevent dissociation of the MHC complexes. To determine the yield of the exchange reaction, an ELISA was performed based on the detection of the light chain (β2m) of stabilized MHC complexes. The assay was performed as generally described in Rodenko et al. (Rodenko et al., 2006).
96 well MAXISorp plates (NUNC) were coated over night with 2 ug/ml streptavidin in PBS at room temperature, washed 4× and blocked for 1 h at 37° C. in 2% BSA containing blocking buffer. Refolded HLA-A*02:01/MLA-001 monomers served as standards, covering the range of 15-500 ng/ml. Peptide-MHC monomers of the UV-exchange reaction were diluted 100-fold in blocking buffer. Samples were incubated for 1 h at 37° C., washed four times, incubated with 2 ug/ml HRP conjugated anti-β2m for 1 h at 37° C., washed again and detected with TMB solution that is stopped with […]. Absorption was measured at 450 nm. […]

## SLTSFLISL
  peptide exchange yield: 50 to 75%
